In the assay the test system is CCRF-CEM cells. Briefly: antitumor effect of KM 2760 and etoposide in combination, CCRF-CEM cells grafted in nude mouse. Conditions: Day 7; KM 2760 800 μg per mouse Day 0 and Day 4; VP-16 10 mg/kg Day 0 to Day 4; tail vein. It is filed as in vivo, Balb/c nude mouse. How it is done: CCRF-CEM cells (human T cell leukemia cell line) were suspended in RPMI 1640 medium (Gibco BRL) at a concentration of 2×10^8 cells/mL, and 100 μL of the suspension was grafted into the ventral skin of Balb/c nude mice (Nippon Crea, male). On Day 17 after the cell grafting, a diameter of a tumor was measured with calipers, and a tumor volume was calculated using formula 2 in Example 2.
Individuals having the tumor volume within the range of from 121 to 348 mm^3 (on average 195 mm^3) were selected, and grouped such that the average tumor volume to be almost the same. Each of the following agents A to D was then administered to the mice. Incidentally, the grouping day was defined as Day 0.
B. Group of administering KM 2760 alone: 800 μg of KM2760 was administered per mouse on Day 0 and Day 4.
C. Group of administering etoposide (hereinafter referred to as VP-16; Lastet injection, Nippon Kayaku Co., Ltd.) alone: 10 mg/kg of VP-16 was administered per mouse for 5 days from Day 0 to Day 4. […]
The experiment was conducted with groups each consisting of five mice. […] On Day 7, the tumor volume was measured. The antitumor effect was evaluated by comparing average values of a tumor volume change (V/V0) on Day 7 when the tumor volume on Day 0 in each group was defined as V0.

Consider one molecule from patent US9675625B2, “Medicament comprising recombinant antibody against chemokine receptor CCR4” (KYOWA HAKKO KIRIN CO., LTD., priority 2003, dated 2017).

B1: KM 2760: anti-CCR4 human chimeric antibody KM 2760 (FERM BP-7054, WO 01/64754) (antibody, V domains shown)
VH: EVQLVESGGDLMKPGGSLKISCAASGFIFSNYGMSWVRQTPDMRLEWVATISSASTYSYYPDSVKGRFTISRDNAENSLYLQMNSLRSEDTGIYYCGRHSDGNFAFGYWGRGTLVTVSA
VL: DVLMTQTPLSLPVSLGDQASISCRSSRNIVHINGDTYLEWYLQRPGQSPKLLIYKVSNRFSGVPDRFSGSGSGTDFTLKISRVEAEDLGVYYCFQGSLLPWTFGGGTRLEIRR
In the case of B1, the “T/C (V/V0 of group divided by V/V0 of negative control group)” value was 0.65.
